Laboratory results from article PMC3074162.
One block for each molecule: values may come before it.

Tests used:
[1] = molecular target: ParB 65–139 (C-terminal DNA-binding RHH domain of pCXC100 ParB) (Leifsonia xyli subsp. cynodontis (plasmid pCXC100)) (UniProt Q6ABV9); test: crystal structure
[2] = molecular target: T1, ParB 65-139 (RHH domain) (Leifsonia xyli subsp. cynodontis …, UniProt Q6EEF9 65-139); test: ITC
T1 sequence: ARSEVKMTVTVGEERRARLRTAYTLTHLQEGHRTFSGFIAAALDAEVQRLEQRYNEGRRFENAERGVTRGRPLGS

[3] = molecular target: T1, ParB 65-139 (RHH domain); test: EMSA
[4] = molecular target: T1, ParB 65-139 (RHH domain); test: EMSA; remark: listed apart in the source
[5] = molecular target: T1, ParB 65-139 (RHH domain); test: EMSA; remark: listed apart in the source
[6] = molecular target: T1, ParB 65-139 (RHH domain); test: ITC; remark: listed apart in the source
[7] = molecular target: T1, ParB 65-139 (RHH domain); test: EMSA; remark: listed apart in the source
[8] = molecular target: T1, ParB 65-139 (RHH domain); test: ITC; remark: listed apart in the source
[9] = molecular target: T1, ParB 65-139 (RHH domain); test: ITC; remark: listed apart in the source
[10] = molecular target: T1, ParB 65-139 (RHH domain); test: EMSA; remark: listed apart in the source
[11] = molecular target: T1, ParB 65-139 (RHH domain); test: EMSA; remark: listed apart in the source
[12] = molecular target: T1, ParB 65-139 (RHH domain); test: ITC; remark: listed apart in the source
[13] = molecular target: T1, ParB 65-139 (RHH domain); test: ITC; remark: listed apart in the source
[14] = molecular target: T1, ParB 65-139 (RHH domain); test: EMSA; remark: listed apart in the source

stoichiometry N [1]: 2
Molecule: ParB 65–139 (C-terminal DNA-binding RHH domain of pCXC100 ParB) (from UniProt Q6ABV9 65-139) (domain or fragment)

B1: R10-18 (dsDNA)
DNA 1: TGCTACGGTAGAACACGC
DNA 2: GCGTGTTCTACCGTAGCA
binding result [2]: no binding

B2: R11-18 (dsDNA)
DNA 1: AGAACACGCCGAACGGCC
DNA 2: GGCCGTTCGGCGTGTTCT
binding result [2]: no binding

B3: R2R3-27 (dsDNA)
DNA 1: AGTAAAGTAGGAATAGGTGGAAAAGCC
DNA 2: GGCTTTTCCACCTATTCCTACTTTACT
binding result [3]: binds

B4: 1R6'-18 (dsDNA)
DNA 1: GGGTAAGATGGGTAAGAT
DNA 2: ATCTTACCCATCTTACCC
binding result [4]: binds

B5: R4-18-3 (dsDNA)
DNA 1: GGTGGAAAAGCCAGAAAC
DNA 2: GTTTCTGGCTTTTCCACC
binding result [5]: binds

B6: R3-18-10A (dsDNA)
DNA 1: GGAATAGGTAGAAAAGCC
DNA 2: GGCTTTTCTACCTATTCC
Kd [6]: 30 ± 10 nM

B7: 2R6'-27 (dsDNA)
DNA 1: GGGTAAGATGGGTAAGATGGGTAAGAT
DNA 2: ATCTTACCCATCTTACCCATCTTACCC
Kd [7]: 877 nM

B8: R0-18 (dsDNA)
DNA 1: TGCTCGATCTGGCTATCC
DNA 2: GGATAGCCAGATCGAGCA
binding result [2]: no binding

B9: R9-18 (dsDNA)
DNA 1: GGAATTGTTTGCTACGGT
DNA 2: ACCGTAGCAAACAATTCC
Kd [8]: 17 ± 6 nM
Kd [9]: 11 ± 9 nM

B10: R4-18+1 (dsDNA)
DNA 1: GAAAAGCCAGAAACAGTG
DNA 2: CACTGTTTCTGGCTTTTC
binding result [10]: binds

B11: R2R3-18 (dsDNA)
DNA 1: AGTAGGAATAGGTGGAAA
DNA 2: TTTCCACCTATTCCTACT
binding result [11]: binds

B12: R3-18 (dsDNA)
DNA 1: GGAATAGGTGGAAAAGCC
DNA 2: GGCTTTTCCACCTATTCC
Kd [12]: 37 ± 10 nM
Kd [9]: 31 ± 12 nM
Kd [13]: 30 ± 10 nM

B13: 2R3'-27 (dsDNA)
DNA 1: GGAAAAGGTGGAAAAGGTGGAAAAGGT
DNA 2: ACCTTTTCCACCTTTTCCACCTTTTCC
Kd [14]: 112 nM

B14: R4-18-2 (dsDNA)
DNA 1: GTGGAAAAGCCAGAAACA
DNA 2: TGTTTCTGGCTTTTCCAC
binding result [5]: binds

B15: R4-18 (dsDNA)
DNA 1: GGAAAAGCCAGAAACAGT
DNA 2: ACTGTTTCTGGCTTTTCC
Kd [12]: 60 ± 12 nM
Kd [9]: 87 ± 59 nM

B16: R4-18-1 (dsDNA)
DNA 1: TGGAAAAGCCAGAAACAG
DNA 2: CTGTTTCTGGCTTTTCCA
binding result [10]: binds

B17: R4-18+4 (dsDNA)
DNA 1: AAGCCAGAAACAGTGGGA
DNA 2: TCCCACTGTTTCTGGCTT
binding result [5]: binds

B18: 1R3'-18 (dsDNA)
DNA 1: GGAAAAGGTGGAAAAGGT
DNA 2: ACCTTTTCCACCTTTTCC
binding result [4]: binds

B19: R4-18+3 (dsDNA)
DNA 1: AAAGCCAGAAACAGTGGG
DNA 2: CCCACTGTTTCTGGCTTT
binding result [5]: binds
